Where two headings read alike, the source gives them in different places.
Legend:
[1] = tested on: HCV ORFs (Gal4-DB fusions); type: binding, HCV genotype 1b, isolate con1; conditions: human protein listed by gene symbol; the value names the HCV protein it interacts with
[2] = target: T1, HCV ORFs (Gal4-DB fusions) (Hepatitis C virus genotype 1b, UniProt Q9WMX2); type: binding, HCV genotype 1b, isolate con1; conditions: human protein as prey
T1 construct: expressed in transfected cells; host or cells: Saccharomyces cerevisiae MAV203 (IMAP1) / AH109 (IMAP2)

[3] = target: T2, HCV proteins (Hepatitis C virus genotype 1b, UniProt Q9WMX2); experiment: Validation by Y2H pairwise matrices; type: binding;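 note: yeast two-hybrid pairwise tests of interactions first found in Y2H screens of HCV bait proteins against human cDNA libraries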
T2 construct: expressed in transfected cells

[4] = validation of interaction with HCV protein CORE
[5] = validation of interaction with HCV protein NS3
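Throughout, for IMAP Y2H IMAP1 (number of IST): yeast two-hybrid screens using HCV genotype 1b proteins fused to Gal4-DB as baits against prey cDNA libraries from human spleen and foetal brain, IMAP1 via transformation and IMAP2 via mating.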
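Throughout, for Interaction with viral protein: yeast two-hybrid screens using HCV genotype 1b proteins fused to Gal4-DB as baits against prey cDNA libraries from human spleen and foetal brain, IMAP1 via transformation and IMAP2 via mating.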

Molecule	Interaction with viral protein [1]	IMAP Y2H IMAP1 (number of IST) ([2]; HCV protein CORE as bait)	Y2H matrices [3, 4]	IMAP Y2H IMAP1 (number of IST) ([2]; HCV protein NS3 as bait)	Y2H matrices [3, 5]
CD68 (protein, UniProt P34810 22-354, looked up) Macrosialin: NDCPHKKSATLLPSFTVTPTVTESTGTTSHRTTKSHKTTTHRTTTTGTTSHGPTTATHNPTTTSHGNVTVHPTSNSTATSQGPSTATHSPATTSHGNATVHPTSNSTATSPGFTSSAHPEPPPPSPSPSPTSKETIGDYTWTNGSQPCVHLQAQIQIRVMYTTQGGGEAWGISVLNPNKTKVQGSCEGAHPHLLLSFPYGHLSFGFMQDLQQKVVYLSYMAVEYNVSFPHAAQWTFSAQNASLRDLQAPLGQSFSCSNSSIILSPAVHLDLLSLRLQAAQLPHTGVFGQSFSCPSDRSILLPLIIGLILLGLLALVLIAFCIIRRRPSAYQAL	CORE	1	+		
BCAR1 (protein, UniProt P56945 1-870, looked up) Breast cancer anti-estrogen …: MNHLNVLAKALYDNVAESPDELSFRKGDIMTVLEQDTQGLDGWWLCSLHGRQGIVPGNRLKILVGMYDKKPAGPGPGPPATPAQPQPGLHAPAPPASQYTPMLPNTYQPQPDSVYLVPTPSKAQQGLYQVPGPSPQFQSPPAKQTSTFSKQTPHHPFPSPATDLYQVPPGPGGPAQDIYQVPPSAGMGHDIYQVPPSMDTRSWEGTKPPAKVVVPTRVGQGYVYEAAQPEQDEYDIPRHLLAPGPQDIYDVPPVRGLLPSQYGQEVYDTPPMAVKGPNGRDPLLEVYDVPPSVEKGLPPSNHHAVYDVPPSVSKDVPDGPLLREETYDVPPAFAKAKPFDPARTPLVLAAPPPDSPPAEDVYDVPPPAPDLYDVPPGLRRPGPGTLYDVPRERVLPPEVADGGVVDSGVYAVPPPAEREAPAEGKRLSASSTGSTRSSQSASSLEVAGPGREPLELEVAVEALARLQQGVSATVAHLLDLAGSAGATGSWRSPSEPQEPLVQDLQAAVAAVQSAVHELLEFARSAVGNAAHTSDRALHAKLSRQLQKMEDVHQTLVAHGQALDAGRGGSGATLEDLDRLVACSRAVPEDAKQLASFLHGNASLLFRRTKATAPGPEGGGTLHPNPTDKTSSIQSRPLPSPPKFTSQDSPDGQYENSEGGWMEDYDYVHLQGKEEFEKTQKELLEKGSITRQGKSQLELQQLKQFERLEQEVSRPIDHDLANWTPAQPLAPGRTGGLGPSDRQLLLFYLEQCEANLTTLTNAVDAFFTAVATNQPPKIFVAHSKFVILSAHKLVFIGDTLSRQAKAADVRSQVTHYSNLLCDLLRGIVATTKAAALQYPSPSAAQDMVERVKELGHSTQQFRRVLGQLAAA	CORE	1	+		
BCAN (protein, UniProt Q96GW7 23-911, looked up) Brevican core protein: DVLEGDSSEDRAFRVRIAGDAPLQGVLGGALTIPCHVHYLRPPPSRRAVLGSPRVKWTFLSRGREAEVLVARGVRVKVNEAYRFRVALPAYPASLTDVSLALSELRPNDSGIYRCEVQHGIDDSSDAVEVKVKGVVFLYREGSARYAFSFSGAQEACARIGAHIATPEQLYAAYLGGYEQCDAGWLSDQTVRYPIQTPREACYGDMDGFPGVRNYGVVDPDDLYDVYCYAEDLNGELFLGDPPEKLTLEEARAYCQERGAEIATTGQLYAAWDGGLDHCSPGWLADGSVRYPIVTPSQRCGGGLPGVKTLFLFPNQTGFPNKHSRFNVYCFRDSAQPSAIPEASNPASNPASDGLEAIVTVTETLEELQLPQEATESESRGAIYSIPIMEDGGGGSSTPEDPAEAPRTLLEFETQSMVPPTGFSEEEGKALEEEEKYEDEEEKEEEEEEEEVEDEALWAWPSELSSPGPEASLPTEPAAQEESLSQAPARAVLQPGASPLPDGESEASRPPRVHGPPTETLPTPRERNLASPSPSTLVEAREVGEATGGPELSGVPRGESEETGSSEGAPSLLPATRAPEGTRELEAPSEDNSGRTAPAGTSVQAQPVLPTDSASRGGVAVVPASGDCVPSPCHNGGTCLEEEEGVRCLCLPGYGGDLCDVGLRFCNPGWDAFQGACYKHFSTRRSWEEAETQCRMYGAHLASISTPEEQDFINNRYREYQWIGLNDRTIEGDFLWSDGVPLLYENWNPGQPDSYFLSGENCVVMVWHDQGQWSDVPCNYHLSYTCKMGLVSCGPPPELPLAQVFGRPRLRYEVDTVLRYRCREGLAQRNLPLIRCQENGRWEAPQISCVPRRPARALHPEEDPEGRQGRLLGRWKALLIPPSSPMPGP	NS3			2	+
C12orf41 (protein, UniProt Q9H9L4 1-492, looked up) KAT8 regulatory NSL complex …: MNRIRIHVLPTNRGRITPVPRSQEPLSCAFTHRPCSHPRLEGQEFCIKHILEDKNAPFKQCSYISTKNGKRCPNAAPKPEKKDGVSFCAEHVRRNALALHAQMKKTNPGPVGETLLCQLSSYAKTELGSQTPESSRSEASRILDEDSWSDGEQEPITVDQTWRGDPDSEADSIDSDQEDPLKHAGVYTAEEVALIMREKLIRLQSLYIDQFKRLQHLLKEKKRRYLHNRKVEHEALGSSLLTGPEGLLAKERENLKRLKCLRRYRQRYGVEALLHRQLKERRMLATDGAAQQAHTTRSSQRCLAFVDDVRCSNQSLPMTRHCLTHICQDTNQVLFKCCQGSEEVPCNKPVPVSLSEDPCCPLHFQLPPQMYKPEQVLSVPDDLEAGPMDLYLSAAELQPTESLPLEFSDDLDVVGDGMQCPPSPLLFDPSLTLEDHLVKEIAEDPVDILGQMQMAGDGCRSQGSRNSEKASAPLSQSGLATANGKPEPTSIS	NS3			1	+
C1orf94 (protein, UniProt Q6P1W5 1-598, looked up) Uncharacterized protein …: MRGGGGCVLALGGQRGFQKERRRMASGNGLPSSSALVAKGPCALGPFPRYIWIHQDTPQDSLDKTCHEIWKRVQGLPEASQPWTSMEQLSVPVVGTLRGNELSFQEEALELSSGKDEISLLVEQEFLSLTKEHSILVEESSGELEVPGSSPEGTRELAPCILAPPLVAGSNERPRASIIVGDKLLKQKVAMPVISSRQDCDSATSTVTDILCAAEVKSSKGTEDRGRILGDSNLQVSKLLSQFPLKSTETSKVPDNKNVLDKTRVTKDFLQDNLFSGPGPKEPTGLSPFLLLPPRPPPARPDKLPELPAQKRQLPVFAKICSKPKADPAVERHHLMEWSPGTKEPKKGQGSLFLSQWPQSQKDACGEEGCCDAVGTASLTLPPKKPTCPAEKNLLYEFLGATKNPSGQPRLRNKVEVDGPELKFNAPVTVADKNNPKYTGNVFTPHFPTAMTSATLNQPLWLNLNYPPPPVFTNHSTFLQYQGLYPQQAARMPYQQALHPQLGCYSQQVMPYNPQQMGQQIFRSSYTPLLSYIPFVQPNYPYPQRTPPKMSANPRDPPLMAGDGPQYLFPQGYGFGSTSGGPLMHSPYFSSSGNGINF	NS3			1	+
ARS2 (protein, UniProt Q9BXP5 2-876, looked up) Serrate RNA effector molecule …: GDSDDEYDRRRRDKFRRERSDYDRSRERDERRRGDDWNDREWDRGRERRSRGEYRDYDRNRRERFSPPRHELSPPQKRMRRDWDEHSSDPYHSGYEMPYAGGGGGPTYGPPQPWGHPDVHIMQHHVLPIQARLGSIAEIDLGVPPPVMKTFKEFLLSLDDSVDETEAVKRYNDYKLDFRRQQMQDFFLAHKDEEWFRSKYHPDEVGKRRQEARGALQNRLRVFLSLMETGWFDNLLLDIDKADAIVKMLDAAVIKMEGGTENDLRILEQEEEEEQAGKPGEPSKKEEGRAGAGLGDGERKTNDKDEKKEDGKQAENDSSNDDKTKKSEGDGDKEEKKEDSEKEAKKSSKKRNRKHSGDDSFDEGSVSESESESESGQAEEEKEEAEEALKEKEKPKEEEWEKPKDAAGLECKPRPLHKTCSLFMRNIAPNISRAEIISLCKRYPGFMRVALSEPQPERRFFRRGWVTFDRSVNIKEICWNLQNIRLRECELSPGVNRDLTRRVRNINGITQHKQIVRNDIKLAAKLIHTLDDRTQLWASEPGTPPLPTSLPSQNPILKNITDYLIEEVSAEEEELLGSSGGAPPEEPPKEGNPAEINVERDEKLIKVLDKLLLYLRIVHSLDYYNTCEYPNEDEMPNRCGIIHVRGPMPPNRISHGEVLEWQKTFEEKLTPLLSVRESLSEEEAQKMGRKDPEQEVEKFVTSNTQELGKDKWLCPLSGKKFKGPEFVRKHIFNKHAEKIEEVKKEVAFFNNFLTDAKRPALPEIKPAQPPGPAQILPPGLTPGLPYPHQTPQGLMPYGQPRPPILGYGAGAVRPAVPTGGPPYPHAPYGAGRGNYDAFRGQGGYPGKPRNRMVRGDPRAIVEYRDLDAPDDVDFF	NS3			4	+

Source: patent publication US20110091994A1, “Methods for Screening Compounds for Treating and/or Preventing an Hepatitis C Virus Infection” (priority 2008, published 2011)
